Assays:
[1] = biological target: human full-length ELMO1 (ELMO1^FL, residues 1-727) (human, UniProt Q92556 1-727); experiment: cryo-EM structure; DOCK5^ΔC/ELMO1^FL/Rac1^G15A (0.9 μM) mixed with RhoG^Q61L (15 μM), cross-linked with 1 mM BS3, SEC; 20 mM HEPES-NaOH pH 8.0, 300 mM NaCl, 1 mM TCEP, 0.06% digitonin; conditions: both partners purified
[2] = biological target: C-terminal truncated DOCK5 (DOCK5^ΔC, residues 1-1642) (human, UniProt Q9H7D0 1-1642); experiment: as above; conditions: both partners purified

binding result [1]: binds
binding result [2]: binds
B1: constitutively active RhoG^Q61L mutant (GTPase domain, residues 1-184) (domain or fragment)
chain: not shown

Reference: article PMC11267001, “RhoG facilitates a conformational transition in the guanine nucleotide exchange factor complex DOCK5/ELMO1 to an open state” (The Journal of Biological Chemistry, 2024)
